Stoichiometry N data for 2 substances are collected here from PMC1557830.

The target of assay [1] is SIV surface glycoprotein gp120 (SIVmneE11S), on virions (SIV (strain SIVmneE11S)) (UniProt P05885). Briefly: cryo-EM structure; cryo-electron tomography of vitrified intact SIVmneE11S virions; 2,986 spikes extracted, aligned and averaged with 3-fold symmetrisation; 28 Å (0.5 FSC); Env unliganded, in situ on the viral membrane.
The target of assay [2] is SIV transmembrane glycoprotein gp41 (SIVmneE11S), naturally truncated intra-viral domain of 17 amino acids, on virions (SIV (strain SIVmneE11S)) (UniProt P05885). The assay is described as above.

In assay [1], “SIV surface glycoprotein gp120 (SIVmneE11S), on virions (from UniProt P05885 23-528) (natural protein)” came in with a stoichiometry N of 3.
For the substance “SIV transmembrane glycoprotein gp41 (SIVmneE11S), naturally truncated intra-viral domain of 17 amino acids, on virions (from UniProt P05885 529-882) (natural protein)”, the stoichiometry N in assay [2] is 3.
